The target in series [1] is T1, MtrA (Mycobacterium tuberculosis) (UniProt P9WGM7).
T1 sequence: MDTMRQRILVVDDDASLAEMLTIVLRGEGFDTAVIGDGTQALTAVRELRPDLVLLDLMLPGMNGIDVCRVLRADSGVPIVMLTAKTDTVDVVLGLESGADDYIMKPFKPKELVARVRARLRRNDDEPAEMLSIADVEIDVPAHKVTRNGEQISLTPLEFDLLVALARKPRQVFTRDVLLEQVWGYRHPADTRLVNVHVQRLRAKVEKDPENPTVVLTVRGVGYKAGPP
As to the kind of experiment: DNase I footprinting.

Series [2] addresses T2, MtrA (Mycobacterium tuberculosis, UniProt P9WGM7 1-228).
T2 sequence: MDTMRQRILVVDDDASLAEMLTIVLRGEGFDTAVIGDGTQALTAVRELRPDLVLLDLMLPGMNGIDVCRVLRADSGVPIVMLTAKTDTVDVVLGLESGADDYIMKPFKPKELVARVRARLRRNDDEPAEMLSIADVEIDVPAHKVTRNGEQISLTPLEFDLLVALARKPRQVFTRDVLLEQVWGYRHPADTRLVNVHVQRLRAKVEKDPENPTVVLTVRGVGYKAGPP
As to the kind of experiment: EMSA. To be noted: protein: recombinant; tags: 6His (pET28a) or GST (pGEX-4T-1); chain copies: 2; label: 32P.

Series [3] has as its target T2, MtrA. As to the kind of experiment: EMSA; 100-600 nM MtrA. Particulars: protein: recombinant, tags: 6His (pET28a) or GST (pGEX-4T-1), chain copies: 2.

Consider “AATTCTACGGAAAACTGTTAGCTTCGGGCGGTGTAGTTATCACGCCGTTTCAGCGTGGAAACGGCACTCGACAATCAAGCGAGGATGGC (double strand) [S6 (84 bp)]”, for which the binding entry in series [1] is “binds”.
On the same count and under the same terms, then “AATTCTAGCGGCCCGGACAACTTGAACCGGGTGTTTTCAACACGAGGATCGCGAGCCGTTGCCGGTAGGTTGCGGCTGGT (double strand) [S7 (75 bp)]”, with “binds”.

B1: Negative control (dsDNA)
DNA 1: CGGAGGTGGTTTTCGCTGCT
DNA 2: AGCAGCGAAAACCACCTCCG
As to B1, the binding result in series [2] is given as “no binding”.

B2: S5 (dsDNA)
DNA 1: AACACGAGGATCGCGAGCCGTTGCCGGTAGGTTGCGGCTGGT
DNA 2: ACCAGCCGCAACCTACCGGCAACGGCTCGCGATCCTCGTGTT
For the molecule B2, in series [3] (label: 32P (EMSA)), the binding result is given as “binds”.

B3: S1 (dsDNA)
DNA 1: GCGGTGTAGTTATCACGCCG
DNA 2: CGGCGTGATAACTACACCGC
B3: the binding result in series [3] (label: 32P) is reported as “binds”.

B4: S2 (dsDNA)
DNA 1: TCACGCCGTTTCAGCGTGGAAACGGCACTC
DNA 2: GAGTGCCGTTTCCACGCTGAAACGGCGTGA
B4: in series [3] (label: 32P (EMSA)), the binding result is on record as “binds”.

B5: Rv0341p (iniB) (dsDNA)
DNA 1: CGCCGGTCACGCCGGCGAACA
DNA 2: TGTTCGCCGGCGTGACCGGCG
Turning to B5, the binding result in series [2] is recorded as “binds”.

B6: CglumepAp (dsDNA)
DNA 1: CCCCTAGCACGGCGTGTTTGG
DNA 2: CCAAACACGCCGTGCTAGGGG
As to B6, the binding result in series [2] is “binds”.

B7: Rv3476cp (kgtP) (dsDNA)
DNA 1: CTGCATCCACGCCGGCGACACGCCGAGGGACG
DNA 2: CGTCCCTCGGCGTGTCGCCGGCGTGGATGCAG
Regarding B7, the binding result in series [2] is “binds”.

B8: S4 (dsDNA)
DNA 1: GCGAGCCGTTGCCGGTAGGTTGCGGCTGGT
DNA 2: ACCAGCCGCAACCTACCGGCAACGGCTCGC
Take B8: the binding result in series [3] (label: 32P) is reported as “no binding”.

B9: CgluproPp (dsDNA)
DNA 1: GACTTTTCACCCCGAACCTTA
DNA 2: TAAGGTTCGGGGTGAAAAGTC
In the case of B9, the binding result in series [2] was “binds”.

B10: Rv0574cp (dsDNA)
DNA 1: GCGGTCTTGAGGACCTTCGGCCCCACCCACGAGGCCGCCG
DNA 2: CGGCGGCCTCGTGGGTGGGGCCGAAGGTCCTCAAGACCGC
In the case of B10, in series [2], the binding result is given as “binds”.

B11: S3 (dsDNA)
DNA 1: TTTCAGCGTGGAAACGGCACTC
DNA 2: GAGTGCCGTTTCCACGCTGAAA
Turning to B11, the binding result in series [3] (label: 32P) was “no binding”.

The values are drawn from article PMC2945938, “The characterization of conserved binding motifs and potential target genes for M. tuberculosis MtrAB reveals a link between the two-component system and the drug resistance of M. smegmatis”.
